Assay results taken from FireProtDB (doi:10.1021/bi00210a045).

Details: Escherichia coli (strain K12), Thermal, DSC, reversible: yes, whole UniProt chain shown
[1] = pH 2.5, 25 °C, glycine or acetate 5 mM or 10 mM
[2] = pH 10.3, 25 °C, glycine or CAPS 5 mM or 10 mM
[3] = pH 10.3, Sodium glycinate 50 mM

B1: Chemotaxis protein CheY wild type, P0AE67 (protein)
chain: MADKELKFLVVDDFSTMRRIVRNLLKELGFNNVEEAEDGVDALNKLQAGGYGFVISDWNMPNMDGLELLKTIRADGAMSALPVLMVTAEAKKENIIAAAQAGASGYVVKPFTAATLEEKLNKIFEKLGM
heat capacity change of unfolding [1]: 0.89 kcal/mol/K
unfolding free energy [1]: 2.89 kcal/mol
Tm (pH 7, Sodium phosphate 50 mM): 58 °C
heat capacity change of unfolding (pH 7, Sodium phosphate 50 mM): 0.69 kcal/mol/K
unfolding enthalpy (calorimetric) (pH 7, Sodium phosphate 50 mM): 83.7 kcal/mol
heat capacity change of unfolding [2]: 0.84 kcal/mol/K
unfolding free energy [2]: 4.9 kcal/mol
Tm [3]: 55 °C
heat capacity change of unfolding [3]: 0.84 kcal/mol/K
unfolding enthalpy (calorimetric) [3]: 67 kcal/mol
